T1: mouse IL-12 (biotinylated control protein) (mouse, UniProt P43431 23-215; P43432 23-335, biotinylated (site not stated))
T1 sequence (looked up) 1: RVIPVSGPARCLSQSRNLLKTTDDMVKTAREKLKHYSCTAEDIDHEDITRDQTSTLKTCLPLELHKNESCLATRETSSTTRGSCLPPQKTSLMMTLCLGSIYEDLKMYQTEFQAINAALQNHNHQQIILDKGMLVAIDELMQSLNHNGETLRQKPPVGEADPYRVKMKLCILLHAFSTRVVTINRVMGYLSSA
T1 sequence (looked up) 2: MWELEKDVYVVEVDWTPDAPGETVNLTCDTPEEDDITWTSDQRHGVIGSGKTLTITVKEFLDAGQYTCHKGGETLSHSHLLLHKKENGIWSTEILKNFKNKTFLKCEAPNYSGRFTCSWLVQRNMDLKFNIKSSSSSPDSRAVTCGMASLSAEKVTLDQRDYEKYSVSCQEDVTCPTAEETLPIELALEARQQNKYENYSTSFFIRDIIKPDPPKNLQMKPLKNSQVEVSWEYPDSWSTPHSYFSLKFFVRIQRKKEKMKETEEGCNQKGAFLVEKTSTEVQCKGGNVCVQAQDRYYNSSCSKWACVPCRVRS

T2: mouse IL-18 (biotinylated control protein) (mouse, UniProt P70380 36-192, biotinylated (site not stated))
T2 sequence (looked up): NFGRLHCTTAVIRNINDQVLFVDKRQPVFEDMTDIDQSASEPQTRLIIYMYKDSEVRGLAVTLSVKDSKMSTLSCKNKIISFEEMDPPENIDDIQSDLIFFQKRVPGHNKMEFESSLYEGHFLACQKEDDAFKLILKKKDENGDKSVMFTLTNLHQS

T3: mouse IL-23 (biotinylated control protein) (mouse, UniProt Q9EQ14 22-196; P43432 23-335, biotinylated (site not stated))
T3 sequence (looked up) 1: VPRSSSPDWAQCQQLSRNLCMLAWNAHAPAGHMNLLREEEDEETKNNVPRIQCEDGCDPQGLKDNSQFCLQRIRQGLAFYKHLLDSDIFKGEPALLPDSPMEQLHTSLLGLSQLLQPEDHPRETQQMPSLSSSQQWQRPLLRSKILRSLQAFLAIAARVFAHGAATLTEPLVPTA
T3 sequence (looked up) 2: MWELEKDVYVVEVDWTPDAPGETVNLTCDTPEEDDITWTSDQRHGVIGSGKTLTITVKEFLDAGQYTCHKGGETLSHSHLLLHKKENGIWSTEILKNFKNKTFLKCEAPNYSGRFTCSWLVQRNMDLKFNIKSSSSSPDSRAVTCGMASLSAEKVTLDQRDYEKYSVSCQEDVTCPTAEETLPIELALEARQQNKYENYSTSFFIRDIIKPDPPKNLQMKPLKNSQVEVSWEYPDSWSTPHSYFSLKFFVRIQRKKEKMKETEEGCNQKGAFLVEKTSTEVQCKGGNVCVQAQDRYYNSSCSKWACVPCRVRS


Tests used:
[1] = target: T4, human GLP-1 receptor (full length, on cells) (human, UniProt P43220 24-463); assay: displacement of 3 nM 125I GLP-1 from HEK293F cells over-expressing human GLP-1R, overnight at 4 C; IC50 fitted directly from displacement of 3 nM 125I GLP-1
[2] = target: T4, human GLP-1 receptor (full length, on …); assay: cell-based or functional assay
[3] = target: T4, human GLP-1 receptor (full length, on …); assay: calculated from the 125I GLP-1 displacement IC50, assuming a GLP-1 Kd of 3 nM and competitive inhibition; Ki derived from the IC50, assuming GLP-1 Kd of 3 nM and competitive inhibition
[4] = target: T1, mouse IL-12 (biotinylated control …); assay: neutravidin capture ELISA
Experimental: (§1) The first characterization assay was a neutravidin capture assay. 96-well Maxisorp plates were coated (100 μl/well) with 5 μg/ml of neutravidin in PBS and were incubated at 4° C. overnight. Coated plates were washed with TBST. […] Plates were washed with TBST and blocked with 300 μl/well of 1× Chemiblocker for 1 hour at RT. Plates were washed with TBST. […] Plates were washed with TBST. Plates were treated for 1 hour at RT with 100 μl/well of goat anti-human IgG (H+L)-AP detection antibody diluted 1:5000 in TBST. AttoPhos substrate (1:5) detected AP activity.

[5] = target: T2, mouse IL-18 (biotinylated control …); assay: neutravidin capture ELISA
Experimental: as §1

[6] = target: rat transferrin (biotinylated control protein) (rat, UniProt P12346 20-698, biotinylated (site not stated)); assay: neutravidin capture ELISA
Experimental: as §1

[7] = target: T3, mouse IL-23 (biotinylated control …); assay: neutravidin capture ELISA
Experimental: as §1

rat transferrin (biotinylated control protein), sequence (P12346 20-698 limits assumed): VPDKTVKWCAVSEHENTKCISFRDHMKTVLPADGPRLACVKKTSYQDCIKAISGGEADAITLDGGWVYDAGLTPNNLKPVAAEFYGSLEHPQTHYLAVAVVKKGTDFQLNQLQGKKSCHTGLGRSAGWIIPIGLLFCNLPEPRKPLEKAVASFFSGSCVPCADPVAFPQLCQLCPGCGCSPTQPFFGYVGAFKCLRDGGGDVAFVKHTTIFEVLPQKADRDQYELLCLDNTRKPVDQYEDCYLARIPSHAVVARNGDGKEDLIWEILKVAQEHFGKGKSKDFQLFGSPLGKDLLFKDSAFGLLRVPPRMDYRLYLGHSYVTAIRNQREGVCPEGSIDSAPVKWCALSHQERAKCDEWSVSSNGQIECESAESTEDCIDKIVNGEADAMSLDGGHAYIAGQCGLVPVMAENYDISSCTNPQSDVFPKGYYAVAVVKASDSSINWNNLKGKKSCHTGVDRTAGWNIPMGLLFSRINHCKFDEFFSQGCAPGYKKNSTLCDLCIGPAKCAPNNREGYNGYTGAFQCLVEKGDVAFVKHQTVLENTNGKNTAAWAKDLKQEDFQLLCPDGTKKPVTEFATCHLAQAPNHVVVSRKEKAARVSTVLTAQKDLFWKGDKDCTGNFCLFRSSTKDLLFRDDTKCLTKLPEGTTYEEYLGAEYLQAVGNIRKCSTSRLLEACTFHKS

IC50 [1] [nM]	IC50 of inhibition of GLP-1 dependent cAMP accumulation (0.3 nM GLP-1, HEK293F cells over-expressing human GLP-1R) [2] [nM]	Ki [3] [nM]	binding result [4]	binding result [5]	binding result [6]	binding result [7]	Binder
48.5	3.3	~20					PHD 191 (format not stated in the assay) (antibody, V domains shown) VH: QVELVQSGAEVKKPGSSVKVSCKASGGTFSAIHWVRQAPGQGLEWMGGIIPIFGMADYAQKFQGRVTITADESTSTAYMELSSLRSEDTAVYYCARTDYGFRALDYWGQGTLVTVSS VL: not shown
			no binding (tested: starting at 5 µg/ml)	no binding (tested: starting at 5 µg/ml)	no binding (tested: starting at 5 µg/ml)	no binding (tested: starting at 5 µg/ml)	PHD 191 mAb, human IgG1 / human kappa (antibody, V domains shown, The human IgG1/kappa format is inferred from the goat anti-human IgG (H+L) detection antibody) VH: QVELVQSGAEVKKPGSSVKVSCKASGGTFSAIHWVRQAPGQGLEWMGGIIPIFGMADYAQKFQGRVTITADESTSTAYMELSSLRSEDTAVYYCARTDYGFRALDYWGQGTLVTVSS VL: not shown

Source: US20110098443A1 (Janssen / Centocor, published 2011)
